How the values were obtained:
Test in all cases: purified protein
Format in all cases: biochemical, Plenodomus lingam
Details in all cases: 1 mM [1-14C]DMAPP, 100 mM Tris-HCl pH 8.0, 2% glycerol, 30 °C
[1] = system: Cc1cccc2c(C[C@H](N)C(=O)O)c[nH]c12
[2] = system: COc1cccc2[nH]cc(C[C@H](N)C(=O)O)c12
[3] = system: N[C@@H](Cc1c[nH]c2ccccc12)C(=O)O

Question: How did the Km [1] turn out when “SirD (tyrosine O-prenyltransferase; dimethylallyltyrosine synthase) (Plenodomus lingam)” was run?
Answer: 2000 ± 400 µM

Question: And the kcat/Km [1]?
Answer: 6.5 M⁻¹ s⁻¹

Question: And the Km [2]?
Answer: 5100 ± 2000 µM

Question: What about the kcat/Km [2] of the same substance?
Answer: 2.5 M⁻¹ s⁻¹

Question: And the Km [3]?
Answer: 370 ± 60 µM

Question: And the kcat [3]?
Answer: 0.095 ± 0.002 s⁻¹

Question: And the kcat/Km [3]?
Answer: 260 M⁻¹ s⁻¹

From PMC3870192
